Measurements from article PMC5345230, “Disruption of TWIST1-RELA binding by mutation and competitive inhibition to validate the TWIST1 WR domain as a therapeutic target” (BMC Cancer, 2017).

B1: TWIST1 E193A (natural protein, human, UniProt Q15672 1-202, looked up)
chain: MMQDVSSSPVSPADDSLSNSEEEPDRQQPPSGKRGGRKRRSSRRSAGGGAGPGGAAGGGVGGGDEPGSPAQGKRGKKSAGCGGGGGAGGGGGSSSGGGSPQSYEELQTQRVMANVRERQRTQSLNEAFAALRKIIPTLPSDKLSKIQTLKLAARYIDFLYQVLQSDELDSKMASCSYVAHERLSYAFSVWRMAGAWSMSASH
B2: TWIST1 R191A (natural protein, human, UniProt Q15672 1-202, looked up)
chain: MMQDVSSSPVSPADDSLSNSEEEPDRQQPPSGKRGGRKRRSSRRSAGGGAGPGGAAGGGVGGGDEPGSPAQGKRGKKSAGCGGGGGAGGGGGSSSGGGSPQSYEELQTQRVMANVRERQRTQSLNEAFAALRKIIPTLPSDKLSKIQTLKLAARYIDFLYQVLQSDELDSKMASCSYVAHERLSYAFSVWAMEGAWSMSASH
B3: TWIST1 W190A (natural protein, human, UniProt Q15672 1-202, looked up)
chain: MMQDVSSSPVSPADDSLSNSEEEPDRQQPPSGKRGGRKRRSSRRSAGGGAGPGGAAGGGVGGGDEPGSPAQGKRGKKSAGCGGGGGAGGGGGSSSGGGSPQSYEELQTQRVMANVRERQRTQSLNEAFAALRKIIPTLPSDKLSKIQTLKLAARYIDFLYQVLQSDELDSKMASCSYVAHERLSYAFSVARMEGAWSMSASH

biological target: RELA (wild type), NF-kB subunit p65 (UniProt Q04206 1-551); test: cell-based or functional assay
Sequence (Q04206 whole entry): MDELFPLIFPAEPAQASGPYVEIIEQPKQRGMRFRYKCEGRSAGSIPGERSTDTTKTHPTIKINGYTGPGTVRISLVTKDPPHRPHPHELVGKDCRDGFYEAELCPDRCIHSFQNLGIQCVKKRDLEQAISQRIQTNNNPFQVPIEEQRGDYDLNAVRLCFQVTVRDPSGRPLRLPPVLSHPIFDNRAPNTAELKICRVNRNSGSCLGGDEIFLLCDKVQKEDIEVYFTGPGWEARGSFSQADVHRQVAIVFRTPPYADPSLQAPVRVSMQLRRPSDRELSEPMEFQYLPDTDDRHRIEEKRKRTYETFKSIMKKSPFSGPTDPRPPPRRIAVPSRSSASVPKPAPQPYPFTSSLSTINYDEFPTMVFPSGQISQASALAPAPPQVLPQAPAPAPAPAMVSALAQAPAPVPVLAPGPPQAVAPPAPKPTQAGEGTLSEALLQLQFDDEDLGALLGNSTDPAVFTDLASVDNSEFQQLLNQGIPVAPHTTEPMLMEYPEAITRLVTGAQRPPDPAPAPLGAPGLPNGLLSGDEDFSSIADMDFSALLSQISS

IL-8 promoter driven firefly luciferase (dual luciferase assay) in Ovcar4 cells, reduction against wild type TWIST1, 50%:
B1
B2
B3
